The record followed here is publication PMC8307404, “Crystal Structure-Guided Design of Bisubstrate Inhibitors and Photoluminescent Probes for Protein Kinases of the PIM Family” (Molecules, 2021).

Square brackets hold non-standard residues; d marks the D form. Peptide text beside a SMILES is read from it. * marks the point of attachment. X3 = O=C(CCCCCNCc1nc2c(sc3cc(Br)cnc32)c(=O)[nH]1)*

Assay in all cases: Kinase profiling (radiometric filter-binding)
Common to all, as to type: biochemical

Data set [1] deals with T1, MAP4K3 (Homo sapiens, UniProt Q8IVH8).
T1 sequence (Q8IVH8 1-894): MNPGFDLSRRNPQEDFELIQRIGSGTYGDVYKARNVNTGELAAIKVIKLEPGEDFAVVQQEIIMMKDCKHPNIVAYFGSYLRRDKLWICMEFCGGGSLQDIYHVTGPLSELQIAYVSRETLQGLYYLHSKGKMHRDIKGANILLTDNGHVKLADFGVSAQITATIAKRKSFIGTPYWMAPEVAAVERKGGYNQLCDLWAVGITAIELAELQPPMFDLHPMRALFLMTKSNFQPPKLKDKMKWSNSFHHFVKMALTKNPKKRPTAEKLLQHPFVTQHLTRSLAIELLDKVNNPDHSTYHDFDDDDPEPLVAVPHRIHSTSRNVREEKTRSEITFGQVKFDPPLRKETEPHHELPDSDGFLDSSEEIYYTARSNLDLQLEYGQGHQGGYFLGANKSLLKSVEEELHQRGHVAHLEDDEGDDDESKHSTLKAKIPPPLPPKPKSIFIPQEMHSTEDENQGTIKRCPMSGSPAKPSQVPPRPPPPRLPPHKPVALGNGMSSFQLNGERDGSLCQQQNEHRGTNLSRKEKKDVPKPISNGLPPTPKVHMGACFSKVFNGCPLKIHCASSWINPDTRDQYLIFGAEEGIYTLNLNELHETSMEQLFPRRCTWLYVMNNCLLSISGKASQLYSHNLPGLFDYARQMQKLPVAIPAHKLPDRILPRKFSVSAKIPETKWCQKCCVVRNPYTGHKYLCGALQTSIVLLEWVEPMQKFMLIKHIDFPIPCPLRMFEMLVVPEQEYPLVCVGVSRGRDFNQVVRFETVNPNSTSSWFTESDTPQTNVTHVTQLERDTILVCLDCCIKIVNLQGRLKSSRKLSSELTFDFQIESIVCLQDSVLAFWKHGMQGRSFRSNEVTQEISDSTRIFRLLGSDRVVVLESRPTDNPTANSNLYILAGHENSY
The note with it: MAP4K3, 1 µM inhibitor; read-out: Residual activity, %. The essentials: (§1)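 Single-point selectivity screen at 1 µM total inhibitor concentration across a panel of 139 or 140 human PKs, using radioactive filter-binding detection with ATP near or below KM; data are % activity remaining versus untreated control.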

Data set [2] deals with T2, SGK1 (Homo sapiens, UniProt O00141).
T2 sequence (O00141 1-431): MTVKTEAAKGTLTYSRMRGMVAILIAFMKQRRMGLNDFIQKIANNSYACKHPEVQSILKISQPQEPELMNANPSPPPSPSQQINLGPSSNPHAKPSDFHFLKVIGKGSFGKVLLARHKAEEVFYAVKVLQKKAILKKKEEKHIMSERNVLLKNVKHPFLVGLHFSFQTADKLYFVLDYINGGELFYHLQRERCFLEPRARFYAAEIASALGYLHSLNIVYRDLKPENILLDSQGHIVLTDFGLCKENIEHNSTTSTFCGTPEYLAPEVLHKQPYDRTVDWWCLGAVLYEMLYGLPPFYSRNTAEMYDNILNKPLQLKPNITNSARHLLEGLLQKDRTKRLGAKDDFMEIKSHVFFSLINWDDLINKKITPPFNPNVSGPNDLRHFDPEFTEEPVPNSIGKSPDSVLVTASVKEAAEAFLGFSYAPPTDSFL
The note with it: SGK1, 1 µM inhibitor; read-out: Residual activity, %. The essentials: as §1

Data set [3] has as its target T3, PRAK (Homo sapiens, UniProt Q8IW41).
T3 sequence (Q8IW41 1-473): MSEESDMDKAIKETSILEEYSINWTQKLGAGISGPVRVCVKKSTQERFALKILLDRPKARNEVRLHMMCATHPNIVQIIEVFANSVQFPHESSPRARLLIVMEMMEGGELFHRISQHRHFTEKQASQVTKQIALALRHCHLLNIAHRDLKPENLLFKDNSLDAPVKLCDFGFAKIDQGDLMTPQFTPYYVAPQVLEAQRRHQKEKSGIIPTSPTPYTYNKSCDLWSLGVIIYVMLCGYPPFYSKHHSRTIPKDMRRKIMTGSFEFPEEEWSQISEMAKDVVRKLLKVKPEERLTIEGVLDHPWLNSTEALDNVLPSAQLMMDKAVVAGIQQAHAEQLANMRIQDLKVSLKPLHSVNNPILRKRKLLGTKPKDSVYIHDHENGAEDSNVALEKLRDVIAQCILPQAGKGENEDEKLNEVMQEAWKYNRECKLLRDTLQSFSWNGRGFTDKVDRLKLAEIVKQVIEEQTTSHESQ
The note with it: 1 µM inhibitor, read-out: Residual activity, %. The essentials:
as §1

Data set [4] concerns the target MAP4K5 (Homo sapiens, UniProt Q9Y4K4). As to conditions: MAP4K5, 1 µM inhibitor; read-out: Residual activity, %. The essentials:
as §1

In data set [5] the target is MLK1 (Homo sapiens, UniProt P80192). The note with it: MLK1, 1 µM inhibitor; read-out: Residual activity, %. The method, boiled down:
as §1

Data set [6] has as its target MELK (Homo sapiens, UniProt Q14680). As to conditions: 1 µM inhibitor, read-out: Residual activity, %. The essentials:
as §1

The target in data set [7] is ABL (Homo sapiens, UniProt P00519). As to conditions: 1 µM inhibitor, read-out: Residual activity, %. The method, boiled down: as §1
Sequence of ABL (P00519 whole entry): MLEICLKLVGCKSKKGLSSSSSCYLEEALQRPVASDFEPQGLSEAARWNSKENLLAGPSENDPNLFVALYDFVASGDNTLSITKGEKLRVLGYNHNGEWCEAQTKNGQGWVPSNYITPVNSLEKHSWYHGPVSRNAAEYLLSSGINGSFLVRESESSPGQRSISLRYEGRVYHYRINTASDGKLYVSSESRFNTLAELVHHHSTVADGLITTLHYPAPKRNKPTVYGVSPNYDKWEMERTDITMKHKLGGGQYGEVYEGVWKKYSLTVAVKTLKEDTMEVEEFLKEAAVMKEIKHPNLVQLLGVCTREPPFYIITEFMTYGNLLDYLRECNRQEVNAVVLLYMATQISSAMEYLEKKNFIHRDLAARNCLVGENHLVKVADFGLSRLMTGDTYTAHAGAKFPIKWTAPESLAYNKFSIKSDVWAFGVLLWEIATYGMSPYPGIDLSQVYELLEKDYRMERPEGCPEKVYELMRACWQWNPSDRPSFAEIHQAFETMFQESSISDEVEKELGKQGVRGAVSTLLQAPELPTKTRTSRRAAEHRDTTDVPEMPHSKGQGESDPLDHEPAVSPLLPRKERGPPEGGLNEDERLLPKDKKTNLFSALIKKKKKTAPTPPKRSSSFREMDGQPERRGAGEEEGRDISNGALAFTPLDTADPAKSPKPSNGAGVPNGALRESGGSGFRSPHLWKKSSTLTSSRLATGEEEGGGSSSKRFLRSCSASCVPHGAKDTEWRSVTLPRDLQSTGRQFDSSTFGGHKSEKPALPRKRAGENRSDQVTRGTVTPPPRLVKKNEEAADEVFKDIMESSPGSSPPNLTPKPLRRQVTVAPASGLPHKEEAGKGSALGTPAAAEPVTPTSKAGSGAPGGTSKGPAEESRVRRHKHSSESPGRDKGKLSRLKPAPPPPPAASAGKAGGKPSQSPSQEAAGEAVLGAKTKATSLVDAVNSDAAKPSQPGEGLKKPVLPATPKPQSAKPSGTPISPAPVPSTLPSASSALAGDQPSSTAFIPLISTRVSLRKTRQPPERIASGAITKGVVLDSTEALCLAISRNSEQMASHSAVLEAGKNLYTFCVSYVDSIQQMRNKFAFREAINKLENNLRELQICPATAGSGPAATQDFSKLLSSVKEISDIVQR
The target in data set [8] is EPH-A4 (Homo sapiens, UniProt P54764). As to conditions: EPH-A4, 1 µM inhibitor; read-out: Residual activity, %. The essentials:
as §1

Data set [9] concerns the target PAK6 (Homo sapiens, UniProt Q9NQU5). The note with it: PAK6, 1 µM inhibitor; read-out: Residual activity, %. The essentials: as §1
Data set [10] has as its target MKK2 (Homo sapiens, UniProt P36507). As to conditions: MKK2, 1 µM inhibitor; read-out: Residual activity, %. The essentials: as §1

Sequence of MAP4K5 (Q9Y4K4 whole entry): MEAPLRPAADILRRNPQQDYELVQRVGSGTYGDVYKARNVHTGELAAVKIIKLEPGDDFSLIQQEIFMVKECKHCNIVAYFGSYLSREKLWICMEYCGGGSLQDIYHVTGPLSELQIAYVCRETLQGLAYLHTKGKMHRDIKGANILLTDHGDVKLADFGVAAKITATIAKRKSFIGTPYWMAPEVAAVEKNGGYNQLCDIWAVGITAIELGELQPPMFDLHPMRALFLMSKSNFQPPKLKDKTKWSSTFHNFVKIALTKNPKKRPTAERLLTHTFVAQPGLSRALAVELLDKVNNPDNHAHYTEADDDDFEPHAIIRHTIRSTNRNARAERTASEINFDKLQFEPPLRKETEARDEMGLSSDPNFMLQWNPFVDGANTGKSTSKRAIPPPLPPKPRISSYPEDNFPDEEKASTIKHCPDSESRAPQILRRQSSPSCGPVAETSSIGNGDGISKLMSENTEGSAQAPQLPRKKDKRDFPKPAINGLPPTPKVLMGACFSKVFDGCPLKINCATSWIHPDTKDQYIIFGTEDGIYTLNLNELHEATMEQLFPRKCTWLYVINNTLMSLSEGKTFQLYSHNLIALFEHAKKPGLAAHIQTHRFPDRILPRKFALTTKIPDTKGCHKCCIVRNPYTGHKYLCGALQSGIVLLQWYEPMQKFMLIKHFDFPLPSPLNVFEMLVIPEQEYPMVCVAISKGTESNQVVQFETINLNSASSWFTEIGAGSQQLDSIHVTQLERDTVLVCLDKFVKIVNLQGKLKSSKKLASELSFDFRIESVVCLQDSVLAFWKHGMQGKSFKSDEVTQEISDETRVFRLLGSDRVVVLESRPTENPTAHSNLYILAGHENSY
Sequence of EPH-A4 (P54764 20-986): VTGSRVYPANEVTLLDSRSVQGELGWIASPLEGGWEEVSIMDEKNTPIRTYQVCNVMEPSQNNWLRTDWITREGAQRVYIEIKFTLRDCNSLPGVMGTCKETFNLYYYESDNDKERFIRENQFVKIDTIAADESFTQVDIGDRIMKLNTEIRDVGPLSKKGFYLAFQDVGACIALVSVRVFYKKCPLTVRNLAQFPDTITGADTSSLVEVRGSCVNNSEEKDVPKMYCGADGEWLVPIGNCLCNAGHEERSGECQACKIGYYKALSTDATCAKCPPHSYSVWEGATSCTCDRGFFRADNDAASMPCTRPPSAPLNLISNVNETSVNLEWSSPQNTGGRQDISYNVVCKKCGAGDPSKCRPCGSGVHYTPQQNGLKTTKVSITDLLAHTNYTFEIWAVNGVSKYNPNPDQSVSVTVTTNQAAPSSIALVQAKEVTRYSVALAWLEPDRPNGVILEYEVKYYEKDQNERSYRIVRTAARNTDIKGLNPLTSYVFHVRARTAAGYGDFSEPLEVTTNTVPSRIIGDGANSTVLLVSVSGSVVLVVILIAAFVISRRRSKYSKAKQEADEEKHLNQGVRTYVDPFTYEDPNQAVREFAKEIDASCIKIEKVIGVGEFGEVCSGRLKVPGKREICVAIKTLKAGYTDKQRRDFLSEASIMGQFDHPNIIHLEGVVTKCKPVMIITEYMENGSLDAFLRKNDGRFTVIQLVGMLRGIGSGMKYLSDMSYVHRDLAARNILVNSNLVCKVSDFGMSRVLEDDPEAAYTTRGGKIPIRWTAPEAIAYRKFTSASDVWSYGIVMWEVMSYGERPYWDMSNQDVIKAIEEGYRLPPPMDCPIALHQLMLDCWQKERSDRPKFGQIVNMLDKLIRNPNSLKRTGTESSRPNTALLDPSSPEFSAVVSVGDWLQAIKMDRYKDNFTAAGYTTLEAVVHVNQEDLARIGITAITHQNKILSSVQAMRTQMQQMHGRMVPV
Sequence of MKK2 (P36507 whole entry): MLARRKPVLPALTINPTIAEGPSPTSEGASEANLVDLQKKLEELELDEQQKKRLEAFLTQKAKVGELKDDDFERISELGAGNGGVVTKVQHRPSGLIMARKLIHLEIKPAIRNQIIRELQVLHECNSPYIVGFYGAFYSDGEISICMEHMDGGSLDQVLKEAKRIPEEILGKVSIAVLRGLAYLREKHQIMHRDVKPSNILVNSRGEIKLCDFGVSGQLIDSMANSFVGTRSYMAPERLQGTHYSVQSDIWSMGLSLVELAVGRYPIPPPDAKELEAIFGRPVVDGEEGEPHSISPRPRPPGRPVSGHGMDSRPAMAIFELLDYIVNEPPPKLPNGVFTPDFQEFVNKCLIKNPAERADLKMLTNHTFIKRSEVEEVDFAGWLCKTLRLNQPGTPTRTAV
Sequence of PAK6 (Q9NQU5 whole entry): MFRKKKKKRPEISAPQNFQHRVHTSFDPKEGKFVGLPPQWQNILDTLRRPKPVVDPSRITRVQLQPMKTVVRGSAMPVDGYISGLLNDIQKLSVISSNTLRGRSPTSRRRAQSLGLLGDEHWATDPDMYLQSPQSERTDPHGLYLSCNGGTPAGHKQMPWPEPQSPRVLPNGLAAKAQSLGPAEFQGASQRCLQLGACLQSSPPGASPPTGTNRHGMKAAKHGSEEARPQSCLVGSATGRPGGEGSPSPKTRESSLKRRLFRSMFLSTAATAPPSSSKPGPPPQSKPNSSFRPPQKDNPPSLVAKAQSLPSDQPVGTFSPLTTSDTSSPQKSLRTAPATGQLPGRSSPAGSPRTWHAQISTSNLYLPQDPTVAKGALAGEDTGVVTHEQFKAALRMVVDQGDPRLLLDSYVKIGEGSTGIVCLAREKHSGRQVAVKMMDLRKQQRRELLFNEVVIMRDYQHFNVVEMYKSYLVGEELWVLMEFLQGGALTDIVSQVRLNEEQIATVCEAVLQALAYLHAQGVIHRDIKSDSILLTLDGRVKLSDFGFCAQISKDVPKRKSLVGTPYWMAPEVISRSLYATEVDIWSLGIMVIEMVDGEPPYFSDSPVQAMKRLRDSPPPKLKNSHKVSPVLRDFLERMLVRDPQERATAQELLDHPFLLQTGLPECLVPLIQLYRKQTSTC
Sequence of MELK (Q14680 whole entry): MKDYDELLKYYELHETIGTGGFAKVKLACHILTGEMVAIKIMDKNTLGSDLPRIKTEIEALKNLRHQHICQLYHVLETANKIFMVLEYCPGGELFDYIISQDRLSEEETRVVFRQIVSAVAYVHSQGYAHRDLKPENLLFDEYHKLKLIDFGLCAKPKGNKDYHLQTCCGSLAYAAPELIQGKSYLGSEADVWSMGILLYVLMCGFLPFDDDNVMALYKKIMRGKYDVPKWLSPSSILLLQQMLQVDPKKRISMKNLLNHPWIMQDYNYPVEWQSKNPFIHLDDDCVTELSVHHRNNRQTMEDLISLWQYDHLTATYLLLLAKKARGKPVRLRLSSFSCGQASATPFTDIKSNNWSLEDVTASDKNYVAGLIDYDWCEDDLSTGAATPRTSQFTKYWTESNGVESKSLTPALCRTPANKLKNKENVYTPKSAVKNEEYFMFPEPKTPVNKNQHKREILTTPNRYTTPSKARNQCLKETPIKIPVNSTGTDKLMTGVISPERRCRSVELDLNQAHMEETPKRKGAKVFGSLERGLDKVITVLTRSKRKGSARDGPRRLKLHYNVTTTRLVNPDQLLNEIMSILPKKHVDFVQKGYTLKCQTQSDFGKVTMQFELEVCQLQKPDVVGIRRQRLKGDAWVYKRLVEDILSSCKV

With `N=C(N)NCCC[C@@H](NC(=O)CCCCCNCc1nc2c(sc3cc(Br)cnc32)c(=O)[nH]1)C(=O)N[C@H](CCCNC(=N)N)C(=O)N[C@H](CCCNC(=N)N)C(=O)N[C@H](CCCNC(=N)N)C(=O)N[C@H](CCCNC(=N)N)C(=O)N[C@H](CCCNC(=N)N)C(=O)N[C@H](CCCCN)C(N)=O` [ARC-3126, BPTP-Ahx-(D-Arg)6-D-Lys-NH2] (X3-[dR][dR][dR][dR][dR][dR][dK]-NH2), the remaining activity at 1 µM worked out at 81 ± 7% in [1]; 75 ± 9% in data set [2]; 97 ± 7% in [3]; 50 ± 12% in [4]; 122 ± 21% in data set [5]; 79 ± 1% in [6]. Moreover, the remaining activity at 1 µM amounted to 116 ± 5% in data set [7], 107 ± 13% in data set [8], 103 ± 5% in data set [9] and 117 ± 14% in data set [10].

For `N=C(N)NCCC[C@@H](NC(=O)CNC(=O)[C@@H](CCCNC(=N)N)NC(=O)[C@@H](CCCNC(=N)N)NC(=O)CCCCCCCNCc1nc2c(sc3ccc(Br)cc32)c(=O)[nH]1)C(=O)N[C@H](CCCCN)C(N)=O` [Compound 2, BBTP-Aoc-(D-Arg)2-Gly-D-Arg-D-Lys-NH2], the remaining activity at 1 µM came to 118 ± 3% in data set [1]; 89 ± 3% in data set [2]; 89% in data set [3]; 112 ± 10% in data set [4]; 98 ± 8% in data set [5]; 75 ± 9% in [6]. Also, the remaining activity at 1 µM in data set [7] came out at 89 ± 5%; in [8] it was 103 ± 16%; in data set [9] it was 110 ± 15%; in [10], 108 ± 11%.

With `N=C(N)NCCC[C@@H](NC(=O)CNC(=O)[C@@H](CCCNC(=N)N)NC(=O)[C@@H](CCCNC(=N)N)NC(=O)Cn1cc(CNCc2nc3c(sc4ccc(Br)cc43)c(=O)[nH]2)nn1)C(=O)N[C@H](CCCCN)C(N)=O` [Compound 3, BBTP-Amt-(D-Arg)2-Gly-D-Arg-D-Lys-NH2], the remaining activity at 1 µM in data set [1] was found to be 105 ± 2%; in data set [2], 95 ± 4%; in [3] it was 79 ± 7%; in [4], 98 ± 3%; in data set [5] it was 101 ± 9%; in data set [6], 73 ± 11%. Further, the remaining activity at 1 µM in data set [7] came to 91 ± 12%; in data set [8] it was 95 ± 5%; in [9], 86 ± 8%; in data set [10] it was 96 ± 7%.

As for `N=C(N)NCCC[C@@H](NC(=O)CCCCCNC(=O)Cn1cnc2c(I)c(I)c(I)c(I)c21)C(=O)N[C@H](CCCNC(=N)N)C(=O)N[C@H](CCCNC(=N)N)C(=O)N[C@H](CCCNC(=N)N)C(=O)N[C@H](CCCNC(=N)N)C(=O)N[C@H](CCCNC(=N)N)C(=O)N[C@H](CCCCN)C(N)=O` [ARC-3125, TIBI-CH2-C(=O)-Ahx-(D-Arg)6-D-Lys-NH2], the remaining activity at 1 µM in data set [1] is 17 ± 1%; in data set [2] it was 9 ± 5%; in data set [3], 112 ± 3%; in [4] it was 102 ± 3%; in data set [5], 100 ± 8%; in [6], 34 ± 4%. The remaining activity at 1 µM came out at 106% in [7], 97 ± 4% in data set [8], 34 ± 11% in data set [9] and 68 ± 5% in data set [10].

For the molecule `N=C(N)NCCC[C@@H](NC(=O)CNC(=O)[C@@H](CCCNC(=N)N)NC(=O)[C@@H](CCCNC(=N)N)NC(=O)CCCCCCCNCc1nc2c(sc3cc(Br)cnc32)c(=O)[nH]1)C(=O)N[C@H](CCCCN)C(N)=O` [Compound 1, BPTP-Aoc-(D-Arg)2-Gly-D-Arg-D-Lys-NH2], the remaining activity at 1 µM is 119 ± 1% in data set [1]; 110 ± 19% in data set [2]; 104 ± 13% in data set [3]; 107 ± 12% in data set [4]; 112 ± 13% in data set [5]; 86 ± 5% in data set [6]. Also, the remaining activity at 1 µM in [7] worked out at 94 ± 8%; in [8], 97 ± 2%; in data set [9], 119 ± 8%; in data set [10] it was 102 ± 5%.
